Assay results as given in paper PMC13376213 (Nature Communications, 2026).
Ends that are not written are not given here.

Molecular target: USP11 tandem DUSP-UBL domain, tag cleaved (for FP) (human)
Test: fluorescence polarisation; saturation or displacement not stated for this experiment; 50 mM phosphate buffer pH 7.4, room temperature
Settings: both partners purified

USP11 tandem DUSP-UBL domain, tag cleaved (for FP) (human), sequence (chain, as listed by the source): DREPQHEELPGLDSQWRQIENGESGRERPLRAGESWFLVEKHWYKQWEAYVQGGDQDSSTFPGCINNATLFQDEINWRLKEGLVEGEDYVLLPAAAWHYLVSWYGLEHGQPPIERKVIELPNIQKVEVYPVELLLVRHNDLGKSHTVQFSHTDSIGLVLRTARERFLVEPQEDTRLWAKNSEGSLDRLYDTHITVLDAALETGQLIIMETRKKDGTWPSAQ

Kd: 200 to 300 µM
Binder: SAVTYPDWIGQSYSEV-NH2 (also: N-terminus FITC-labeled or acetylated, not given here which) [ORAI1 peptide used for FP]
